In this assay the target is T1, Albumin from chicken egg (Ovalbumin/OVA) (chicken), P01012.
T1 chain: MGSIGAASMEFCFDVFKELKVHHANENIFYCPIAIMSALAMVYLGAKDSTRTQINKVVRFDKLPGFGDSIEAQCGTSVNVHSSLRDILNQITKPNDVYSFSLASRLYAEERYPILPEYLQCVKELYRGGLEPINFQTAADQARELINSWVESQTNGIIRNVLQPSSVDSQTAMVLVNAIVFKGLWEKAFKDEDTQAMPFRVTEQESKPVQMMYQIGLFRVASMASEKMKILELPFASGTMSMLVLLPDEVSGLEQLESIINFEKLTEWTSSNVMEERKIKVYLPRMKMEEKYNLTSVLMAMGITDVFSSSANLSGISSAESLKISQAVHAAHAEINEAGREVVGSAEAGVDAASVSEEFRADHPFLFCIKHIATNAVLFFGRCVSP
The assay is described as follows: native MS. As to conditions: remark: other sources report otherwise.

The text below walks through data of doi:10.1101/2023.01.09.523258.

B1: Albumin from chicken egg (Ovalbumin/OVA), P01012 1-386 (natural protein)
chain: T1 chain
Molecule B1 displayed a relative abundance of the dimer of 5 to 8% and a stoichiometry N of 2.

Broadly, the stoichiometry N is the number of molecules, sites or subunits per partner or assembly.
